Measurements: the supplement of paper PMC9170038

System: K4 kissing-loop RNA reporter
Test: apparent KD of K4 kissing-loop reporter; higher = weaker reporter binding
Conditions: Eterna round: R107
Experimental: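 RNA-MaP round R107: designed RNA switches with theophylline, tryptophan, arginine or FMN aptamers are transcribed on-chip within common flanks. They are titrated with a labelled K4 kissing-loop RNA reporter in RNA-MaP buffer (100 mM Tris pH 7.5, 80 mM KCl, 4 mM MgCl2), without ligand or with the indicated ligand. Median apparent KD per design.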

[1] = input ligand: theophylline 20 uM
[2] = input ligand: tryptophan 2.4 mM
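Further: bound reporter read as fluorescence of individual clusters on recovered sequencing chips by microscopy, with normalized cluster intensities fitted with a binding model.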

| Sequence | apparent KD of K4 kissing-loop reporter (input ligand: FMN 200 uM) | apparent KD of K4 kissing-loop reporter (input ligand: arginine 13.2 mM) | apparent KD of K4 kissing-loop reporter (input ligand: none) | apparent KD of K4 kissing-loop reporter [1] | apparent KD of K4 kissing-loop reporter [2] |
| --- | --- | --- | --- | --- | --- |
| GACUCAUGUAGAAGGAGCGUCAGAAGCUACAGACAUGAGUGAUGUUCAUGUUAGUUGAUCUGACAGGUAGGUCGCUACAGCAGGA [KL-SSArg B14 #analogue] | 145 nM | 121 nM | 149 nM | 141 nM | 150 nM |
| GAGAGCUCUGGAGGAUAUGAGUCUAGUGAUGUUAGGCGGUCCAUGCGCGUGGCGCGUUAUGCCCUUUUAGAAGGCCAGAGCUCUC [#2 Exclusion - FMN B Attempt #19 (HarryS)] | 98.3 nM | 69.3 nM | 99.8 nM | 113 nM | 85 nM |
| GAGAUAGAGGCGGCCGCCACUAGUGAUGUUGGUGAUGUUAGAUAGAGAAUAGAACGGGUACUCCCUAGGACCGGGCCAGAUGGAG [#04 K4 Tryptophan B Exclusion] | 63.8 nM | 34.9 nM | 58.5 nM | 49.4 nM | 53 nM |
| GAGCGGUGGAGGUUACCGCUAUUCUGAGAAGGAGCGCAGAUGACUGCAGGUAGGUCGCUUAGAGCUUGCAGUGAUGUUGCAAGUU [Edrirama] | 197 nM | 177 nM | 213 nM | 193 nM | 213 nM |
| GAGGGCUCGGGAGGAUAUGAGUCUAGUGAUGUUAGGCGGUCCAUGCGCGUGGCGCGUUAUGCCCUUUUAGAAGGCCCGAGCCCGC [#2 Exclusion - FMN B Attempt #23 (HarryS)] | 109 nM | 76.4 nM | 90.5 nM | 83.3 nM | 93.8 nM |
| GAUAUAGUGAUGUUAUAUAAGAAGGAGUUACGAGGACCGGUACGGCCGCCACUCGAAACGAGUGAUGAUUUGGGAGAUUGGGUUG [SSTryptA.O] | 380 nM | 330 nM | 350 nM | 339 nM | 265 nM |
| GAUAUAGUGAUGUUAUAUAGGAAGGAGUUACGAGGACCGGUACGGCCGCCACUCGAAACGAGUGAUGAUUUGGGAGAUUGGGUUG [SSTryptA.P] | 364 nM | 359 nM | 395 nM | 430 nM | 332 nM |
| GAUCUGAACGAAAGUUCGGAUCAGUCCGAUACCAGUAUGGAUUCAUACCCUUGGCAGCGGAAAUCUGCUAUGGAGUGAUGUUCCU [Theophylline A K4 13] | 362 nM | 280 nM | 413 nM | 396 nM | 274 nM |
| GAUUGUGAUGGAAACAUCGCAAUCUCUGAAGGAGCGCGUGAAAACGCAGGUAGGUCGCAGGACGACUAUGACAGUGAUGUUGUCG [Ex Arginine A K4 3] | 189 nM | 216 nM | 190 nM | 207 nM | 189 nM |
| GAUUUAGAGGCGGCCGCCACUAGUGAUGUUAGUGAUGUUUGAUACGGAAUAUAUCUGCGAGUAGAUAGGACCGGGCCAGAUGGAG [rttrbmullin] | 207 nM | 150 nM | 170 nM | 184 nM | 181 nM |
| GCAACUCUCAGUGAUGUUGAGUUAUCGGAAGGAGCGCGUGAAAACGCAGGUAGGUCGCCGAUACAAUGAGUUUCUCGUUGGUUGC [Arginine A K4 21] | 769 nM | 489 nM | 664 nM | 554 nM | 569 nM |
| GCAAUUCUCAGUGAUGUUGAGUAAUCGGAAGGAGCGCGUGAAAACGCAGGUAGGUCGCCGAAACAUGAAGUAUCUUCGUGUUUGC [Arginine A K4 24] | 180 nM | 190 nM | 215 nM | 226 nM | 168 nM |
| GCAGGACGAGGAGGAGGAUGAAUUACUGAAGGAGCGCAUAUGGUUGCAGGUAGGUCGCGGUAAACAAGUAUAGUGAUGUUAUAUC [SSArgA.P] | 913 nM | 586 nM | 552 nM | 621 nM | 584 nM |
| GCAGGACGAGGAGGAGGAUGAAUUACUGAAGGAGCGCAUAUUUUUGCAGGUAGGUCGCGGUAAACAAGUAUAGUGAUGUUAUAUA [SSArgA.M] | 415 nM | 464 nM | 446 nM | 514 nM | 264 nM |
| GCCAGGCAUCUGCAGAGUGAUGUUCAAAAGCGAGGACCGGUACGGCCGCCACUCGAAAGCAGAUGCCUGGGCGUACAAAGUACGC [idea] | 1140 nM | 262 nM | 984 nM | 562 nM | 899 nM |
| GCCGAAUCGUUGGGCUCAGUGAUGUUGAUCCGAGGACCGGUACGGCCGCCACUCGAAUGGCAGUGACCACACUGGUAACGUUAAA [theeternabot_exclusion_KL_Trp_A_43] | 573 nM | 490 nM | 699 nM | 575 nM | 261 nM |
| GCCGUACGCAUGGAUACCAGAGAUGUUAGUCUCGAUGCCAGUGAUGUUGGCUAUAGCAUACUCCCUUGGCAGCCAUGCGUACGGC | 132 nM | 113 nM | 128 nM | 113 nM | 107 nM |
| GCCGUACGCAUGGAUACCAGCAAUUAUGCUCGUGAUCUAGUGAUGUUAGUGGCGAAAGUUUGCCCUUGGCAGCCAUGCGUACGGC | 224 nM | 172 nM | 244 nM | 134 nM | 182 nM |
| GCCGUACGCAUGGAUACCAGCGUACGUCACCUAGCAGUGAUGUUGCUAUUGCCACGUAAACGCCCUUGGCAGCCAUGCGUACGGC | 495 nM | 448 nM | 478 nM | 181 nM | 445 nM |
| GCCGUAGAUGGAAGGAGCGAGGUAGACUGUUGAAGUGAUGUUUCAACUCAUUAAGCCCAACCUCAGGUAGGUCGCCAUCUACGGC | 133 nM | 110 nM | 115 nM | 118 nM | 115 nM |
| GCCGUAGAUGGAAGGAGCGUGUCAAAGUGAUGUUUUGAUUAACUCCCUAAGGGAUAGAUGACACAGGUAGGUCGCCAUCUACGGC | 74.5 nM | 63.5 nM | 74.3 nM | 102 nM | 63.3 nM |
| GCCGUAGAUGGAAGGAGCGUGUCCAAACCUCAUUCAUGUACACACGAGUGAUGUUCGUGUACACAGGUAGGUCGCCAUCUACGGC | 413 nM | 314 nM | 374 nM | 410 nM | 363 nM |

| Sequence | apparent KD of K4 kissing-loop reporter (input ligand: FMN 200 uM) | apparent KD of K4 kissing-loop reporter (input ligand: arginine 13.2 mM) | apparent KD of K4 kissing-loop reporter (input ligand: none) | apparent KD of K4 kissing-loop reporter [1] | apparent KD of K4 kissing-loop reporter [2] |
| --- | --- | --- | --- | --- | --- |
| GCCGUAGAUUGAAGGAGCGAGGCUACUUAAAGACCGAGUGAUGUUCGGGAACGUGAAACUCCUCAGGUAGGUCGCAAUCUACGGC | 284 nM | 235 nM | 280 nM | 227 nM | 267 nM |
| GCCGUAGAUUGAAGGAGCGCCUUCUUACCAAGAGUGAUGUUCUUUGGUACCAUGUUCAGUAGGCAGGUAGGUCGCAAUCUACGGC | 292 nM | 258 nM | 332 nM | 387 nM | 390 nM |
| GCCUACGCUGCAGGAUAUAGUUACAGCGACUUAGCCGUUGUAUGUCCAUGGUUCAGUGAUGUUGAACUAGAAGGGCAGCGUAGGC [#02 K4 FMN B Exclusion] | 285 nM | 127 nM | 132 nM | 134 nM | 154 nM |
| GCGAGUUUGCAAGGAUAUCGACCGUCGUACGACCAGUGAUGUUGGGAGUACUUUCAAAAUCGAUUUCGAGAAGGUGCUGGCAUCA [theeternabot_sameState_KL_FMN_B_12] | 271 nM | 212 nM | 250 nM | 248 nM | 234 nM |
| GCGAUCUGCAUCGAUACCAGCCCAGUGAUGUUGGGCUGCUCUCCAUGGGUGCCAGACACGGGCCCUUGGCAGCGAGGUAGAGCCC [Maonzaa] | 129 nM | 118 nM | 109 nM | 112 nM | 115 nM |
| GCGCGGGAGUGAUGUUCCAAGUGGUGUUAGCGAGGACCGGUACGGCCGCCACUCGUUACGGCCGGGCCGUAGGAUACACUGGCGC [Same State - Tryptophan A (Freestyle 17)] | 308 nM | 218 nM | 286 nM | 290 nM | 240 nM |
| GCGCGUCAUGUCAGCGGUGACACUGUCGAUACCAGCGCCGCAAGGCGCCCUUGGCAGCGACGUGCUGGAGUGAUGUUCCAGCGUC [#2 Exclusion - Theophylline A Attempt #22 (HarryS)] | 159 nM | 113 nM | 145 nM | 142 nM | 140 nM |
| GCGCGUCAUGUCAGCGGUGACUACGUCGAUACCAGCAGGGAAACCUGCCCUUGGCAGCGACGCGCUGGAGUGAUGUUCCGACGGA [#2 Exclusion - Theophylline A Attempt #6 (HarryS)] | 434 nM | 431 nM | 544 nM | 854 nM | 442 nM |
| GCGCGUCAUGUCGGCGGUGACUACGCCGAUACCAGCCGGGAAACCGGCCCUUGGCAGCGGCGCGCCGGAGUGAUGUUCCGACAGA [#2 Exclusion - Theophylline A Attempt #3 (HarryS)] | 126 nM | 205 nM | 190 nM | 359 nM | 109 nM |
| GCGGGCCCUGGAGGAUAUGAGUCGAGUGAUGUUCGGCGGUCCAUGCCGAUGCGGCGUUAUGCCCUUUUAGAAGGCCAGGGCCCGC [#2 Exclusion - FMN B Attempt #7 (HarryS)] | 392 nM | 236 nM | 310 nM | 243 nM | 277 nM |
| GCGUCAUCGAAAGGAUAUGGAGUAGUGAUGUUGAUCCAUAUGCUCACGCAUAGCCGAGAACAUCGACCAGAAGGUUCAAGAACUG [theeternabot_exclusion_KL_FMN_B_41] | 672 nM | 509 nM | 757 nM | 520 nM | 459 nM |
| GCUAAGGAGUGAUGUUCCAAGUGAUGUUAACGAGGACCGGUACGGCCGCCACUCGAUACGGCCGGACCGUAAGAUAAACUACAGC [Same State - Tryptophan A (Freestyle 6)] | 206 nM | 182 nM | 213 nM | 279 nM | 194 nM |
| GCUAUGGUAGGAAGGAGCGCUUAUUCAUUAAUAAGAGUGAUGUUCGAUAAUGAAUAUUUAUAGCAGGUAGGUCGCCUACUAUAGC [Arginine B K4 2] | 300 nM | 223 nM | 230 nM | 206 nM | 237 nM |
| GCUAUGGUAGGAAGGAGCGCUUAUUUAUUUUUAAGAGUGAUGUUCGUUAGUAGAUAGUUAAAGCAGGUAGGUCGCCUACUAUAGC [Arginine B K4 15] | 146 nM | 177 nM | 171 nM | 161 nM | 100 nM |
| GCUAUGGUAGGAAGGAGCGCUUGUUCGGUCAUAUGAGUGAUGUUCGAGACUGAGCAUUUAUAGCAGGUAGGUCGCCUACUAUAGC [Arginine B K4 10] | 164 nM | 179 nM | 181 nM | 160 nM | 175 nM |
| GCUCGUCAUGUCAGCGGUGGUACUGUCGAUACCAGUGCCGUAAGGCGCCCUUGGCAGCGAUGCGCUGGAGUGAUGUUCCAGCGUU [#2 Exclusion - Theophylline A Attempt #32 (HarryS)] | 110 nM | 92.9 nM | 116 nM | 120 nM | 119 nM |
| GGAGAGCGGAACGAUACCAGCUGCGGCACGCACCGGAAGUUAAGCCAGUGAUGUUGGCGGAGCCCUUGGCAGCGUGCGCGCGUCC [Abeusma] | 122 nM | 93.3 nM | 104 nM | 145 nM | 105 nM |
| GGAGUUACCUGGGAUACCAGCCGGAGGCCCAGAGCUCGGAGUGAUGUUCUGGGAUGUUUCGGCCCUUGGCAGCUCUGGGUCUCCG [#2 Exclusion - Theophylline B Attempt #5 (HarryS)] | 1050 nM | 627 nM | 806 nM | 433 nM | 1410 nM |
| GGAGUUACCUGGGAUACCAGUCGGAGUCUCAGAGCACGGAGUGAUGUUCUGGGAUGUUUCGGCCCUUGGCAGCUCUGGGACUCCA [#2 Exclusion - Theophylline B Attempt #15 (HarryS)] | 317 nM | 209 nM | 268 nM | 219 nM | 228 nM |
| GGAUAGGAUAGAGGAUAUGGAAAACACAGAAGUGACUUGUUGUGUUUAUCCAUAGGGAGUGAUGUUCCAGAAGGCUGUCCUAUCG [MatMod 22 - Jieux - Exclusion - FMN B] | 333 nM | 206 nM | 206 nM | 230 nM | 154 nM |
| GGAUCCACCAGUGAUGUUGGAGAAAACUCUAAGGAUAUGACGAAAGUCAGAAGGUGGUAGACUGGACAAAGUCCGGUGGGAUCCA [FmnA10 U30+G78] | 264 nM | 229 nM | 350 nM | 406 nM | 317 nM |
